Measurements from paper PMC1570500.

Molecular target: syntaxin 1 (rat (endogenous in PC12)) (UniProt P32851)
Experiment: immunostaining of cells or tissue; PC12 membrane sheets incubated in buffer at 37 °C for increasing periods before fixation, immunostained for Munc18–1; no re-binding (large volume of buffer); trace fitted to a double-exponential decay

Sequence of UniProt P32851 (P32851 whole entry): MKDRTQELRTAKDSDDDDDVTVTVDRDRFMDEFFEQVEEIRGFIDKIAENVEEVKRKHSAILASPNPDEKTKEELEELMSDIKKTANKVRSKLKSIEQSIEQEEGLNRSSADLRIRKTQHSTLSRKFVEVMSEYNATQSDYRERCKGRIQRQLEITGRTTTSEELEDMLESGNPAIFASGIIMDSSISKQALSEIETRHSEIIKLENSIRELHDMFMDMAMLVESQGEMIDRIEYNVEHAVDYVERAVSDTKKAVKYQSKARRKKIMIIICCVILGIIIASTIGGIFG

Substance: Munc18–1 (from UniProt P61765 1-594) (natural protein)
- half-time of dissociation from the membrane, fast component of a double-exponential decay: 5 s
- half-time of dissociation from the membrane, slow component of a double-exponential decay: 1000 s
